The values below come from paper PMC7954794, “Protein context shapes the specificity of SH3 domain-mediated interactions in vivo” (Nature Communications, 2021).

One assay relates to Abp1 PPIs. Description: DHFR-PCA of Abp1 SH3-swapped baits (Fig. 2B-D, S2C, S2F). The assay is classed as cell-based, Saccharomyces cerevisiae. The conditions noted are these: number of interactions of Abp1 carrying the named SH3; sheet FigS2A-B. From the text:
Having determined that multiple PPIs require SH3s, we asked whether the latter establish PPI specificity independently from their host proteins by swapping domains (Fig. 2A). Using the second round of genome editing, we individually replaced Abp1 SH3 with the 27 yeast SH3s and 3 human Abp1 orthologs’ SH3s (CTTN, HCLS1, and DBNL, Fig. 2B). The reintroduction of its own SH3 (Abp1SH3 in Abp1) reconstitutes almost perfectly Abp1’s interaction profile (Kendall’s τ = 0.93, Fig. 2B). […] No homologous SH3 domain fully re-establishes the normal Abp1 PPI profile (Fig. 2B and Supplementary Fig. 2C). However, we observe a significant correlation (cophenetic correlation = 0.20, p value = 0.005, Fig. 2C) between the similarity of PPI profiles (Fig. 2B) and the sequence similarity of the SH3s. […] Nonetheless, a subset of SH3-dependent PPIs is only observed with the endogenous domain. For instance, Hua2 and App1, both well-characterized partners of Abp1[14],[18],[19], are only detected when Abp1 contains its own SH3 (WT or swapped via editing). A given SH3 may therefore not be fully replaceable with other paralogous or orthologous domains. This pattern is confirmed by cellular growth phenotypic analyses (Supplementary Fig. 2D, E). PPIs, SH3 sequence similarity, and growth profiles under stress conditions are correlated (Supplementary Fig. 2D, E). This relationship is particularly clear when analyzing growth on media supplemented with hygromycin.
The stuffing of YSC84 SH3 rendered the strain sterile and was therefore not used for this study as the assays require crosses. For genes containing two SH3s (BZZ1 and BEM1), a combination of this first stuffer with a second one ([…]) coding for a highly similar linker ([…]) was used, which allowed targeting each SH3 position independently. The two N-terminal domains of SLA1, which are separated by six nucleotides, were stuffed by a single stuffer. Cells containing pCAS were selected via the G418 resistance cassette from the plasmid on YPD plates (YPD + NAT 100 μg/ml (DHFR F[1,2] selection) + G418 200 µg/mL (Bioshop Canada)). Colonies were randomly selected and grown in YPD media without G418 to allow plasmid loss. The correct insertion of the stuffer was validated by PCR and Sanger sequencing. The SH3-swapped, -shuffled, and -mutated strains were constructed following a second CRISPR–Cas9 editing step with the same procedures. The stuffer sequences were targeted by specific gRNAs (one gRNA per stuffer) and replaced by PCR amplified specific SH3 (with 40 bp homology arms) or libraries of mutated SH3 domains for Deep Mutational Scanning (DMS) with 78 bp flanking homology regions. Validation of the SH3 domain insertions was done as we previously described except for DMS libraries (see below).
The overall DHFR-PCA pipeline is based on Tarassov et al.[43] and the procedures have also been published as a visualized protocol. The screens were performed with robotically manipulated pin tools (BM5-SC1, S&P Robotics Inc.). First, the preys were cherry-picked from 96-well plates to omnitrays in a 384 format on YPD + HPH solid media. Plates were then combined into the 1536 format on YPD + HPH. The array was constituted of 575 preys previously shown to interact physically with at least one SH3-containing protein as reported in BioGRID V3.4.16 along with 40 negative controls. The prey array comprised a border of control strains of two rows and two columns corresponding to the PPI between LSM8-DHFR F[1,2] and CDC39-DHFR F[3]. This double border was used to remove border effects. Preys are present in duplicate at a randomized position in the 1536 array (except for YAL041W which is present four times per array). Baits were crossed with two prey plates, resulting in four independent bait–prey tests for each PPI. Baits were grown in liquid YPD + NAT and then transferred on solid YPD + NAT omnitrays. They were then replicated on YPD + NAT omnitrays in 1536 array format. […]

Another assay deals with Abp1 (1xFLAG). Description: Western blot expression level of Abp1 SH3-swapped baits (Fig. S2A-B). The conditions noted are these: sheet FigS2A-B; for Ratio Swap/WT Flag: Flag signal relative to Abp1 WT (Abp1-1 to Abp1-4 = 1); for Flag (2 bands): Western blot Flag signal (2 bands), Abp1 WT, SH3-deleted or SH3-swapped. The assay is classed as cell-based, Saccharomyces cerevisiae. Also on record: Flag (2 bands): unit not given here. How it is done:
Precultures of yeast cells expressing baits fused with the DHFR F[1,2]-FLAG were grown overnight at 30 °C with agitation in synthetic complete medium. The next day, cells were expanded in synthetic complete medium to reach their exponential phase (OD600 of around 1.0), pelleted, and frozen at −80 °C. The equivalent of fifty OD600 of cells was resuspended in ice-cold yeast lysis buffer (10 mM Tris-HCl pH 7.4, 150 mM NaCl, 0.5 mM EDTA (Millipore Sigma), 1% Triton X-100 (Millipore Sigma), and one cOmplete Mini Protease Inhibitor Cocktail (Millipore Sigma) per 10 mL) with […] glass beads (Millipore Sigma) and disrupted at 4 °C by 10 cycles of 2 min vortexing and 2 min cooldown. The equivalent of […] of lysed cells was used for the immunoprecipitation of the bait proteins using FLAG-M2 agarose beads (Millipore Sigma). The beads were incubated with the cell lysates for 120 min at 4 °C with a slow rotation, followed by three washes with the yeast lysis buffer.
Protein extracts and affinity-purified baits from yeast and human lysed cells were migrated on 10% polyacrylamide gels. The separated proteins were then transferred to nitrocellulose membranes. Validation of correct protein loading was done with ponceau staining of the membranes. Before the primary antibody incubations, membranes were blocked in 5% milk. Protein signals were detected on an Amersham Imager 600RGB (GE Healthcare) following the incubation of the membranes with the appropriate HRP-conjugated secondary antibodies and the Clarity Western ECL Substrate (Bio-Rad). The antibodies used in this study are M2-HRP (A8592, Sigma, 1/50,000), rabbit anti-FLAG (F7425, Sigma, 1/1000), PAK (SC-881, Santa Cruz, 1/200), p130cas/BCAR1 (SC-860, Santa Cruz, 1/200), actin (Cell Signaling Technology, 1/2000), anti-mouse HRP (Cell Signaling Technology, 1/10,000) and anti-rabbit HRP (Cell Signaling Technology, 1/10,000). The quantification of the WB signals was performed with the Amersham Imager 600 analysis software (GE Healthcare).

B1: Hof1 (protein, UniProt Q05080 1-669, looked up)
Cytokinesis protein 2: MSYSYEACFWDPNDNGVNILLGHISQGIRSCDSMILFFKQRSELEKDYARRLGAITGKLDKDIGTNMDYGKLNETFNVVLSVEKARAQSHSKQSEILFRQIYTDTKAFAANLQARYTTLSGKIERLRMDKFNKKKGCEVLQKKLQDAQIRFRDLQLNENNMIGAKRVEHNKRELLKWESNSQEYKVQLDVLKQEYKASQKFWIHEWAQLSCELQEMENARISFLQSKLQQFATSSMETYILEQTKMDMLTNHLNSFTAADEISTFSKENGTGRLKHKTSKGDMNSSANWAQMSSISTTSKKTESYMDNIRKLSSQLKETENKRKLASIDKYEKPLPSPEVTMATQFRNSTPVIRNETKVVANPTLSLRSSPVQLQSNVDDSVLRQKPDKPRPIVGEEQLKPDEDSKNPDEKGLMVHKRNQSLSSPSESSSSNPTDFSHIKKRQSMESMTTSVSSMANSIDDSQRFAKSWNSSNRKRKSMSHLQVPSSASSRSDDGGRTPNSAHNLNEDDYNTRRDTSTSTILFKPPVAVRGTSRGHTHRQSMIMQDSSNPIEDALYEMERIQSSSKPGTKTGNIMDERGVVRDRGITVTLPIVTSEGFPVIEYAKAMYPLIGNEAPGLANFHKGDYLLITEIVNKDWYKGEVYDNDRIDRNHRIGLIPYNFIQLLHQGL
In the case of B1, in the assay with Abp1 PPIs, the “Interactions in Abp1” value was determined as 15. Further, in the assay on Abp1 (1xFLAG), the “Ratio Swap/WT Flag” value was 1.051 and the “Flag (2 bands)” value was 112286.

B2: Cyk3 (protein, UniProt Q07533 1-885, looked up)
Cytokinesis protein 3: MATNLTSLKPPFKVKARYGWSGQTKGDLGFLEGDIMEVTRIAGSWFYGKLLRNKKCSGYFPHNFVILLEERLNSSTENGRQPSKIVESFEKSNKVVIPPVPSRYSDERPRPKKKLSSSMPNSPKKPVDSLTKARKAKSKEMVNEKNIYNTQSSRHHNNSAPNLPLASHSKPQVRNFEESMNNPLPPLPPLPDLDNMRKTDKRAPKKSYSANDLHMARSSREYNYYKDNQKFYDGFIPEKRYSLEEDSISSGLFSNSQYLNDSACSSENSFALMSDFSATSAGSFARHKYAQSFSDSLQRSQNANGCSTKINDSQEFGDSNASSRNGKMGDILRKIIIPKRNTNIYSSSVSSPKSPKAYPKLPDIQNLNLSATPDEARDWIAVKCHLNRARTLTKYDKHPRYMRALEENRDLILHPQDSIYNGLNTNEVKGNTKPGLVDVELAELNIEYIDKMTWKRCIRDGTMTLDSWAQTTFSARYSTVLEKLRGIYIFCTEMFALTDDNGTSDFSAEPQNLEKILYRKHCTPYELTWLFKKLANSLGITCEIVIGFLKTPSAINWEFKYNHCWLRILVNKEWRFIDVILGNVTNPIHEFVNNRKIKKAENSYFLMAPLEMIYTHIPPREFEQHIVPSIDQLSALYLPLVFPSFFKNELKLYKFSTALSFLEDSEIYECSLEIPNDVEVFASVVIPTDNEEASSAYRNMELALTQIKKQKAESGRRIALIKAVLPPNVNKGSLYIHSGVRGTQTSIANIHPLSMMVPLTHKGSNMKYEFVIKIPSESIQKIELYIVEPQSRYLFVGNEYSFEVIQSPSDGIVYSSDEGPNQNRKQPMAIKSPSGRVHELVKSDPHFPYGTWKGSIKIKEPGVWSALVIADSGIGWSVFAEWLCV
With B2, the “Interactions in Abp1” value with Abp1 PPIs is reported as 25. In addition, in the assay on Abp1 (1xFLAG), the “Ratio Swap/WT Flag” value stood at 0.2689 and the “Flag (2 bands)” value was determined as 59466.

B3: Hse1 (protein, UniProt P38753 2-452, looked up)
Class E vacuolar …: SSSAIKIRNALLKATDPKLRSDNWQYILDVCDLVKEDPEDNGQEVMSLIEKRLEQQDANVILRTLSLTVSLAENCGSRLRQEISSKNFTSLLYALIESHSVHITLKKAVTDVVKQLSDSFKDDPSLRAMGDLYDKIKRKAPYLVQPNVPEKHNMSTQADNSDDEELQKALKMSLFEYEKQKKLQEQEKESAEVLPQQQQQHQQQNQAPAHKIPAQTVVRRVRALYDLTTNEPDELSFRKGDVITVLEQVYRDWWKGALRGNMGIFPLNYVTPIVEPSKEEIEKEKNKEAIVFSQKTTIDQLHNSLNAASKTGNSNEVLQDPHIGDMYGSVTPLRPQVTRMLGKYAKEKEDMLSLRQVLANAERSYNQLMDRAANAHISPPVPGPALYAGMTHANNTPVMPPQRQSYQSNEYSPYPSNLPIQHPTNSANNTPQYGYDLGYSVVSQPPPGYEQ
On to B3, for which, in the assay with Abp1 PPIs, the “Interactions in Abp1” value is given as 77. Further, in the assay with Abp1 (1xFLAG), the “Ratio Swap/WT Flag” value was 0.5073 and the “Flag (2 bands)” value came out at 54180.

B4: Fus1 (protein, UniProt P11710 1-512, looked up)
Nuclear fusion protein FUS1: MVATIMQTTTTVLTTVAAMSTTLASNYISSQASSSTSVTTVTTIATSIRSTPSNLLFSNVAAQPKSSSASTIGLSIGLPIGIFCFGLLILLCYFYLKRNSVSISNPPMSATIPREEEYCRRTNWFSRLFWQSKCEDQNSYSNRDIEKYNDTQWTSGDNMSSKIQYKISKPIIPQHILTPKKTVKNPYAWSGKNISLDPKVNEMEEEKVVDAFLYTKPPNIVHIESSMPSYNDLPSQKTVSSKKTALKTSEKWSYESPLSRWFLRGSTYFKDYGLSKTSLKTPTGAPQLKQMKMLSRISKGYFNESDIMPDERSPILEYNNTPLDANDSVNNLGNTTPDSQITSYRNNNIDLITARPHSVIYGTTAQQTLETNFNDHHDCNKSTEKHELIIPTPSKPLKKRKKRRQSKMYQHLQHLSRSKPLPLTPNSKYNGEASVQLGKTYTVIQDYEPRLTDEIRISLGEKVKILATHTDGWCLVEKCNTQKGSIHVSVDDKRYLNEDRGIVPGDCLQEYD
On to B4, for which the “Interactions in Abp1” value with Abp1 PPIs was determined as 50. Besides, in the assay with Abp1 (1xFLAG), the “Ratio Swap/WT Flag” value is 0.8195 and the “Flag (2 bands)” value was found to be 181205.

B5: Lsb1 (protein, UniProt P53281 2-241, looked up)
LAS seventeen-binding protein …: SASLVNRSLKNIRNELEFLKESNVISGDIFELINSKLPEKWDGNQRSPQNADTEEYVEALYDFEAQQDGDLSLKTGDKIQVLEKISPDWYRGKSNNKIGIFPANYVKPAFTRSASPKSAEAASSSTVSRPSVPPPSYEPAASQYPSQQVSAPYAPPAGYMQAPPPQQQQAPLPYPPPFTNYYQQPQQQYAPPSQQAPVEAQPQQSSGASSAFKSFGSKLGNAAIFGAGSAIGSDIVNSIF
For the molecule B5, the “Interactions in Abp1” value with Abp1 PPIs was 106. Further, in the assay with Abp1 (1xFLAG), the “Ratio Swap/WT Flag” value amounted to 0.4741 and the “Flag (2 bands)” value amounted to 50638.
